The values that follow come from patent US20230406951A1 (Pfizer, published 2023).

Positions count from the first letter of the chain named.

The target in this experiment is T1, human TNFR2 (human, UniProt P20333 23-461).
T1 construct: expressed on the surface of CHO cells; also called HuTNFR2; TNFRSF1B
T1 sequence: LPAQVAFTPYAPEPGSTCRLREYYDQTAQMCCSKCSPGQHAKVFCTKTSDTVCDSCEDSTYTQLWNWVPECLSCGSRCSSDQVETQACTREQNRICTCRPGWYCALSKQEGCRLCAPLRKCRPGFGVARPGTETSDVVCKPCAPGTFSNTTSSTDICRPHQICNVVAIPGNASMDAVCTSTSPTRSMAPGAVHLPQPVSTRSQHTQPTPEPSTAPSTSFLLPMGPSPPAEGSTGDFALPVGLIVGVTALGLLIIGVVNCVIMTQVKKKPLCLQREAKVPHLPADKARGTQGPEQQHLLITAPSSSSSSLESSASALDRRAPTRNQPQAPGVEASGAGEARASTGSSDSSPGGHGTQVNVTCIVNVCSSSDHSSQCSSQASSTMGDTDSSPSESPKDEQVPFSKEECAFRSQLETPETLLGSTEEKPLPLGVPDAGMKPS
Kind of experiment: binding to human TNFR2 CHO cells.

B1: IgG 1945 (antibody, name in Kabat numbering, V domains shown)
VH: QVQLVQSGAEVKKPGASVKVSCKVSGFSFPSSGVDWVRQAPGQGLEWLGVTRGEGSTHYNQKFQGRVTITKDTSKSTVYMELSSLRSEDTAVYYCASGEWDEGFVYWGQGTLVTVSS
VL: DIQLTQSPSFLSASVGDRVTITCKASQNVGTAVAWYQQKPGKAPKLLIYAASTLQSGVPSRFSGSGSGTEFTLTISSLQPEDFATYYCLQYSSYPLTFGGGTKVEIKR
notes: IgG
Turning to B1, the binding result is on record as “no binding”.

B2: IgG 1948 (antibody, name in Kabat numbering, V domains shown)
VH: B1 VH with R52H, E54S
VL: B1 VL
notes: IgG
For B2, the binding result is on record as “no binding”.

B3: IgG 1908 (antibody, name in Kabat numbering, V domains shown)
VH: B1 VH with R52K, E54Q
VL: B1 VL with L89Q
notes: IgG
For B3, the binding result is “no binding”.

B4: IgG 1952 (antibody, name in Kabat numbering, V domains shown)
VH: B1 VH with R52W, E54V, W100Q
VL: B1 VL
notes: IgG
Take B4: the binding result was “no binding”.

B5: IgG 1958 (antibody, name in Kabat numbering, V domains shown)
VH: B1 VH with W100H
VL: B1 VL with L89Q
notes: IgG
With B5, the binding result is listed as “no binding”.

B6: IgG 1936 (antibody, name in Kabat numbering, V domains shown)
VH: B1 VH
VL: B1 VL with Y91K
notes: IgG
In the case of B6, the binding result is given as “no binding”.

B7: IgG 1961 (antibody, name in Kabat numbering, V domains shown)
VH: B1 VH with R52F, G53Q, W100S, D101T
VL: B1 VL with L89Q
notes: IgG
For the molecule B7, the binding result is reported as “no binding”.

B8: IgG 1970 (antibody, name in Kabat numbering, V domains shown)
VH: B1 VH with R52H, E54S, W100H
VL: B1 VL with L89Q
notes: IgG
B8: the binding result is reported as “no binding”.

B9: IgG 1938 (antibody, name in Kabat numbering, V domains shown)
VH: B1 VH with R52L, E54H
VL: B1 VL with Y91K
notes: IgG
Take B9: the binding result is on record as “no binding”.

B10: IgG 1967 (antibody, name in Kabat numbering, V domains shown)
VH: B1 VH with R52L, E54H, W100R
VL: B1 VL with L89Q
notes: IgG
For B10, the binding result is reported as “no binding”.

B11: IgG 1914 (antibody, name in Kabat numbering, V domains shown)
VH: B1 VH with R52W, E54V, W100H
VL: B1 VL with L89Q
notes: IgG
Take B11: the binding result is “no binding”.

B12: IgG 1910 (antibody, name in Kabat numbering, V domains shown)
VH: B1 VH with R52F, G53Q
VL: B1 VL with L89Q
notes: IgG
For the molecule B12, the binding result was “no binding”.

B13: IgG 1954 (antibody, name in Kabat numbering, V domains shown)
VH: B1 VH with R52K, E54Q, W100H
VL: B1 VL with L89Q
notes: IgG
On to B13, for which the binding result is “no binding”.

B14: IgG 1942 (antibody, name in Kabat numbering, V domains shown)
VH: B1 VH with R52W, E54V, W100R
VL: B1 VL with Y91K
notes: IgG
As to B14, the binding result is reported as “no binding”.

B15: IgG 1949 (antibody, name in Kabat numbering, V domains shown)
VH: B1 VH with R52W, E54V, W100S, D101T
VL: B1 VL
notes: IgG
Regarding B15, the binding result was “no binding”.

B16: IgG 1969 (antibody, name in Kabat numbering, V domains shown)
VH: B1 VH with R52H, E54S, W100S, D101T
VL: B1 VL with L89Q
notes: IgG
As to B16, the binding result is “no binding”.

B17: IgG 1940 (antibody, name in Kabat numbering, V domains shown)
VH: B1 VH with R52W, E54V, W100S, D101T
VL: B1 VL with Y91K
notes: IgG
Regarding B17, the binding result is listed as “no binding”.

B18: IgG 1959 (antibody, name in Kabat numbering, V domains shown)
VH: B1 VH with W100R
VL: B1 VL with L89Q
notes: IgG
In the case of B18, the binding result is “no binding”.

B19: IgG 1947 (antibody, name in Kabat numbering, V domains shown)
VH: B1 VH with R52L, E54H
VL: B1 VL
notes: IgG
In the case of B19, the binding result is given as “no binding”.

B20: IgG 1941 (antibody, name in Kabat numbering, V domains shown)
VH: B1 VH with R52W, E54V, W100H
VL: B1 VL with Y91K
notes: IgG
For the molecule B20, the binding result is “no binding”.

B21: IgG 1957 (antibody, name in Kabat numbering, V domains shown)
VH: B1 VH with W100S, D101T
VL: B1 VL with L89Q
notes: IgG
As for B21, the binding result was “no binding”.

B22: IgG 1911 (antibody, name in Kabat numbering, V domains shown)
VH: B1 VH with R52L, E54H
VL: B1 VL with L89Q
notes: IgG
As to B22, the binding result was “no binding”.

B23: IgG 1962 (antibody, name in Kabat numbering, V domains shown)
VH: B1 VH with R52F, G53Q, W100H
VL: B1 VL with L89Q
notes: IgG
Regarding B23, the binding result is listed as “no binding”.

B24: IgG 1944 (antibody, name in Kabat numbering, V domains shown)
VH: B1 VH with R52K, E54Q
VL: B1 VL
notes: IgG
Consider B24, for which the binding result is “no binding”.

B25: IgG 1937 (antibody, name in Kabat numbering, V domains shown)
VH: B1 VH with R52F, G53Q
VL: B1 VL with Y91K
notes: IgG
Take B25: the binding result is reported as “no binding”.

B26: IgG 1955 (antibody, name in Kabat numbering, V domains shown)
VH: B1 VH with R52K, E54Q, W100R
VL: B1 VL with L89Q
notes: IgG
Consider B26, for which the binding result was “no binding”.

B27: IgG 1951 (antibody, name in Kabat numbering, V domains shown)
VH: B1 VH with R52W, E54V, W100R
VL: B1 VL
notes: IgG
Turning to B27, the binding result is recorded as “no binding”.

B28: IgG 1915 (antibody, name in Kabat numbering, V domains shown)
VH: B1 VH with R52W, E54V, W100R
VL: B1 VL with L89Q
notes: IgG
As for B28, the binding result is “no binding”.

B29: IgG 1950 (antibody, name in Kabat numbering, V domains shown)
VH: B1 VH with R52W, E54V, W100H
VL: B1 VL
notes: IgG
Take B29: the binding result was “no binding”.

B30: IgG 1912 (antibody, name in Kabat numbering, V domains shown)
VH: B1 VH with R52H, E54S
VL: B1 VL with L89Q
notes: IgG
Take B30: the binding result is reported as “no binding”.

B31: IgG 1953 (antibody, name in Kabat numbering, V domains shown)
VH: B1 VH with R52K, E54Q, W100S, D101T
VL: B1 VL with L89Q
notes: IgG
As for B31, the binding result was “no binding”.

B32: IgG 1963 (antibody, name in Kabat numbering, V domains shown)
VH: B1 VH with R52F, G53Q, W100R
VL: B1 VL with L89Q
notes: IgG
As to B32, the binding result was “no binding”.

B33: IgG 1916 (antibody, name in Kabat numbering, V domains shown)
VH: B1 VH with R52W, E54V, W100Q
VL: B1 VL with L89Q
notes: IgG
Regarding B33, the binding result is given as “no binding”.

B34: IgG 1946 (antibody, name in Kabat numbering, V domains shown)
VH: B1 VH with R52F, G53Q
VL: B1 VL
notes: IgG
Take B34: the binding result is recorded as “no binding”.

B35: IgG 1956 (antibody, name in Kabat numbering, V domains shown)
VH: B1 VH with R52K, E54Q, W100Q
VL: B1 VL with L89Q
notes: IgG
Regarding B35, the binding result was “no binding”.

B36: IgG 1943 (antibody, name in Kabat numbering, V domains shown)
VH: B1 VH with R52W, E54V, W100Q
VL: B1 VL with Y91K
notes: IgG
Consider B36, for which the binding result is listed as “no binding”.

B37: IgG 1909 (antibody, name in Kabat numbering, V domains shown)
VH: B1 VH
VL: B1 VL with L89Q
notes: IgG
As to B37, the binding result is reported as “no binding”.

B38: IgG 1966 (antibody, name in Kabat numbering, V domains shown)
VH: B1 VH with R52L, E54H, W100H
VL: B1 VL with L89Q
notes: IgG
Take B38: the binding result is recorded as “no binding”.

B39: IgG 1913 (antibody, name in Kabat numbering, V domains shown)
VH: B1 VH with R52W, E54V, W100S, D101T
VL: B1 VL with L89Q
notes: IgG
B39: the binding result is “no binding”.

B40: IgG 1965 (antibody, name in Kabat numbering, V domains shown)
VH: B1 VH with R52L, E54H, W100S, D101T
VL: B1 VL with L89Q
notes: IgG
Regarding B40, the binding result was “no binding”.
